Experimental data as given in patent publication US20220119825A1, “SCALABLE PEPTIDE-GPCR INT[…] SYSTEMS” (THE TRUSTEES OF COLUMBIA UNIVERSITY IN THE CITY OF NEW YORK, priority 2019, published 2022).

Columns and labels:
Experiment in all cases: cell-based or functional assay
[1] = biological target: T1, Nc.Ste2, Ste2-like mating GPCR of Neurospora crassa (Neurospora crassa)
T1 chain: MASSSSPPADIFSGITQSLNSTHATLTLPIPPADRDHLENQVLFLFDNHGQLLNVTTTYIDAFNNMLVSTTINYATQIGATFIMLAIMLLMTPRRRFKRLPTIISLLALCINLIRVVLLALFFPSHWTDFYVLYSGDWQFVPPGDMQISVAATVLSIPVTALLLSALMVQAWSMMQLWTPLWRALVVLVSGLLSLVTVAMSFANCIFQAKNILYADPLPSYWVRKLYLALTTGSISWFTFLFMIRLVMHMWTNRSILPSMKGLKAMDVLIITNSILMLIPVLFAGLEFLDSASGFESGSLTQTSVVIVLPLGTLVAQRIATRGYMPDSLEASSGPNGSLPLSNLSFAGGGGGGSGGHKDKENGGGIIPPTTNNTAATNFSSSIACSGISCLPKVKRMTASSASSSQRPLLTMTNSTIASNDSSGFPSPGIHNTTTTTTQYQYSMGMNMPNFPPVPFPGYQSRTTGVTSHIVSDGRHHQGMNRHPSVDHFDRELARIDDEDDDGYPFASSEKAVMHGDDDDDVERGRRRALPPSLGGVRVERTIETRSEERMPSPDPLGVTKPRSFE

[2] = biological target: T2, Pd.Ste2, Ste2-like mating GPCR of Pseudogymnoascus destructans (Pseudogymnoascus destructans)
T2 chain: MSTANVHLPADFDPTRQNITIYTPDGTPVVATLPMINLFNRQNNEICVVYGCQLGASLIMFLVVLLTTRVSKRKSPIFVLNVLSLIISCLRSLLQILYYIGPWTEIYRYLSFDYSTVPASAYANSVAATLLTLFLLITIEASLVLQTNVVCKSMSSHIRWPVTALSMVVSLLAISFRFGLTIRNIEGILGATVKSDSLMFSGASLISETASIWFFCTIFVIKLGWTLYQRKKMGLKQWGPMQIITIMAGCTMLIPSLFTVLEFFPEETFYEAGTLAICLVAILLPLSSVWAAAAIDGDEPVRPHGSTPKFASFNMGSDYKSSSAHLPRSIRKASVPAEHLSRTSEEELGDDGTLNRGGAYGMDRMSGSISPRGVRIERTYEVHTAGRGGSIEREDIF

[3] = biological target: T3, Pr.Ste2, Ste2-like mating GPCR of Penicillium chrysogenum (Penicillium chrysogenum)
T3 chain: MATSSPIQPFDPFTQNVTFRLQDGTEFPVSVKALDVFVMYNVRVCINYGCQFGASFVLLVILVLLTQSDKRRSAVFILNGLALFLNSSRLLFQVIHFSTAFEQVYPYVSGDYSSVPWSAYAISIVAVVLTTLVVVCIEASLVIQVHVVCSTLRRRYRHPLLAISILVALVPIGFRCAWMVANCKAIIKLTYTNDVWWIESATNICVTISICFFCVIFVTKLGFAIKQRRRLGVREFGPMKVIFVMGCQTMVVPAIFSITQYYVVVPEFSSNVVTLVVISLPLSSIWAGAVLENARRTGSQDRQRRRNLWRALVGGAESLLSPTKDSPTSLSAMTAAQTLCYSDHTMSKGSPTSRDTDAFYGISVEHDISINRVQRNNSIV

[4] = biological target: T4, Bm.Ste2, Ste2-like mating GPCR of Baudoinia compniacensis (Baudoinia compniacensis)
T4 chain: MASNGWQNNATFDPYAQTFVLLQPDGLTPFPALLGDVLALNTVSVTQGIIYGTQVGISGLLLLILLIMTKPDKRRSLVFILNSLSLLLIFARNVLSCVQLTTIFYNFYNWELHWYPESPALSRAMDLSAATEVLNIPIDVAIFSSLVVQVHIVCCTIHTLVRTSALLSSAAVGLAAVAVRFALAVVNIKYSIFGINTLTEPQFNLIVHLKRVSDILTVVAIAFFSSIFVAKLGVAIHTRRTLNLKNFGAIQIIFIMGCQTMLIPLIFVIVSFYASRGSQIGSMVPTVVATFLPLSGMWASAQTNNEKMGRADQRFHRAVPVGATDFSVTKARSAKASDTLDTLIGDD

[5] = biological target: T5, Sca.Ste2, Ste2-like mating GPCR, code Sca (Saccharomyces castellii (Table 3 prints …))
T5 chain: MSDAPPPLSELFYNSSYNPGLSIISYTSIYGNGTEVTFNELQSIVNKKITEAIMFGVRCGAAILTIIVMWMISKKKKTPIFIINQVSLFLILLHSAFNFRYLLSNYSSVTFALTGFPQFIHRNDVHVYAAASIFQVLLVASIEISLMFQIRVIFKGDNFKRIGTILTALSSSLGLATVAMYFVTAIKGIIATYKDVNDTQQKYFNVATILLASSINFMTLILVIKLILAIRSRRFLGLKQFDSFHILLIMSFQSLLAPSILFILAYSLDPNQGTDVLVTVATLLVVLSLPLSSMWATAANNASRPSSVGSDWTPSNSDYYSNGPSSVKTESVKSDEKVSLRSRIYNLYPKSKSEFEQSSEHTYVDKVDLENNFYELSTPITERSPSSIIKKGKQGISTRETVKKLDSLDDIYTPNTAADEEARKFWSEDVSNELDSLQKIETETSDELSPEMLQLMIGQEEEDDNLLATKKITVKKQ

[6] = biological target: T6, Sj.Ste2, Ste2-like mating GPCR of Schizosaccharomyces japonicus (Schizosaccharomyces japonicus)
T6 chain: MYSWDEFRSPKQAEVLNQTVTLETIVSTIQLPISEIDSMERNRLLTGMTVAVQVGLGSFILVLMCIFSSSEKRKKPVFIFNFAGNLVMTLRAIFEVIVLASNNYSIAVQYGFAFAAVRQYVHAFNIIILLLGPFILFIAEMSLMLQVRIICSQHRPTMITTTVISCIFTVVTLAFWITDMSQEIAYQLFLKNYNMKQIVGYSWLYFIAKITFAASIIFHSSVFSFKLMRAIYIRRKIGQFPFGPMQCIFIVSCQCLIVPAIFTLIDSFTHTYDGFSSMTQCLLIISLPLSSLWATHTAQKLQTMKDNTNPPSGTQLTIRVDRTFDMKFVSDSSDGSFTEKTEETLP

[7] = biological target: T7, So.Ste2, Ste2-like mating GPCR of Schizosaccharomyces octosporus (Schizosaccharomyces octosporus)
T7 chain: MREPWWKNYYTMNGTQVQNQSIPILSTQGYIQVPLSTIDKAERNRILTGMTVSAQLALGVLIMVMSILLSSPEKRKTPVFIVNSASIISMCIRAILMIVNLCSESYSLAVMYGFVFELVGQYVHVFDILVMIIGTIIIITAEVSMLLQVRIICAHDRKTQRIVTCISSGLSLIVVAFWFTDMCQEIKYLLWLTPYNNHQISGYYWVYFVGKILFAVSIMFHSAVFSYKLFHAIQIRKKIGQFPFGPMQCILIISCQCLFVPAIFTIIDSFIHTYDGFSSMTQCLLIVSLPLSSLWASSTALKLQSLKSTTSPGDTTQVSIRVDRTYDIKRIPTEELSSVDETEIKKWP

[8] = biological target: T8, Sp.Ste2, Ste2-like mating GPCR of Schizosaccharomyces pombe (Schizosaccharomyces pombe, UniProt Q00619 1-348)
T8 sequence: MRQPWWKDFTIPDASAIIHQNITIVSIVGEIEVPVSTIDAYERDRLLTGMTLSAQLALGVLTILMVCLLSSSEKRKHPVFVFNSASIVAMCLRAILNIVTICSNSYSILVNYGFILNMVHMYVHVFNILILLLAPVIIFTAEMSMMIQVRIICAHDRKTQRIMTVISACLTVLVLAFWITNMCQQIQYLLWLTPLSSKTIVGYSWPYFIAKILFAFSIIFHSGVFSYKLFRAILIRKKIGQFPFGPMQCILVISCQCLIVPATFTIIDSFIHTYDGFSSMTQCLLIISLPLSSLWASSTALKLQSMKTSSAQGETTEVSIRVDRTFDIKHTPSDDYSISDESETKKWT

[9] = biological target: T9, Ss.Ste2, Ste2-like mating GPCR of Scheffersomyces stipitis (Scheffersomyces stipitis)
T9 chain: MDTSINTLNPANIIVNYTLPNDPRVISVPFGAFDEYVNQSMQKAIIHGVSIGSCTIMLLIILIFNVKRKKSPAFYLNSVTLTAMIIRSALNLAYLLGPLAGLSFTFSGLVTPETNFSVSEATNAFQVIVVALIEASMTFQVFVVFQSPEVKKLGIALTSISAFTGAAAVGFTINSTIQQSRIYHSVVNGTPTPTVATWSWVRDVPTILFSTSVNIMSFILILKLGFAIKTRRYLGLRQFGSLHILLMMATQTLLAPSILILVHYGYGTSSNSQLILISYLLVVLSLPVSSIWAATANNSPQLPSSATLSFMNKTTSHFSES

[10] = biological target: T10, Vp1.Ste2, Ste2-like mating GPCR of Vanderwaltozyma polyspora1 (Vanderwaltozyma polyspora)
T10 chain: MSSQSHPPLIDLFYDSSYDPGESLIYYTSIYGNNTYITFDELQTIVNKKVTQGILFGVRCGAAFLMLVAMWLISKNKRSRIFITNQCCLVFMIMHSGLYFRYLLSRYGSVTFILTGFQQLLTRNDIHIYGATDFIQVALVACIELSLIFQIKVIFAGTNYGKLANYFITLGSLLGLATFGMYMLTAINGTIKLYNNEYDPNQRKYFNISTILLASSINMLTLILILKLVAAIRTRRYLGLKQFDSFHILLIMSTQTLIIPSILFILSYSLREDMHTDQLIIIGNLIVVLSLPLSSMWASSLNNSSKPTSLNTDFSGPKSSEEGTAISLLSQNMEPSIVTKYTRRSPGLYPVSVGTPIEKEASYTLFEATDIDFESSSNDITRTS

B1: Nc peptide ligand #1 QWCRIHGQSCW (peptide)
peptide: QWCRIHGQSCW
Bttm (FUS1p-RFP reporter) [1]: 27.6 fluorescence/A600 (not printed) | EC50 (FUS1p-RFP reporter) [1]: -6.3 log10 M (not printed) | Fold Change (FUS1p-RFP reporter) [1]: 10.4 fold | Span (FUS1p-RFP reporter) [1]: 259 fluorescence/A600 (not printed) | Top (FUS1p-RFP reporter) [1]: 287 fluorescence/A600 (not printed)

B2: Pd peptide ligand #1 FCWRPGQPCG (peptide)
peptide: FCWRPGQPCG
Bttm (FUS1p-RFP reporter) [2]: 28.8 fluorescence/A600 (not printed) | EC50 (FUS1p-RFP reporter) [2]: -7.7 log10 M (not printed) | Fold Change (FUS1p-RFP reporter) [2]: 6.6 fold | Span (FUS1p-RFP reporter) [2]: 161 fluorescence/A600 (not printed) | Top (FUS1p-RFP reporter) [2]: 190 fluorescence/A600 (not printed)

B3: Pr peptide ligand #1 WCGHIGQGC (peptide)
peptide: WCGHIGQGC
Bttm (FUS1p-RFP reporter) [3]: 27.9 fluorescence/A600 (not printed) | EC50 (FUS1p-RFP reporter) [3]: -5.8 log10 M (not printed) | Fold Change (FUS1p-RFP reporter) [3]: 7.4 fold | Span (FUS1p-RFP reporter) [3]: 179 fluorescence/A600 (not printed) | Top (FUS1p-RFP reporter) [3]: 207 fluorescence/A600 (not printed)

B4: Bm peptide ligand #1 GWIGRCGVPGSSC (peptide)
peptide: GWIGRCGVPGSSC
Bttm (FUS1p-RFP reporter) [4]: 30.3 fluorescence/A600 (not printed) | EC50 (FUS1p-RFP reporter) [4]: -6.7 log10 M (not printed) | Fold Change (FUS1p-RFP reporter) [4]: 5.2 fold | Span (FUS1p-RFP reporter) [4]: 128 fluorescence/A600 (not printed) | Top (FUS1p-RFP reporter) [4]: 159 fluorescence/A600 (not printed)

B5: Sca peptide ligand #1 NWHWLRLDPGQPLY (peptide)
peptide: NWHWLRLDPGQPLY
Bttm (FUS1p-RFP reporter) [5]: 24.3 fluorescence/A600 (not printed) | EC50 (FUS1p-RFP reporter) [5]: -8.1 log10 M (not printed) | Fold Change (FUS1p-RFP reporter) [5]: 6.4 fold | Span (FUS1p-RFP reporter) [5]: 131 fluorescence/A600 (not printed) | Top (FUS1p-RFP reporter) [5]: 155 fluorescence/A600 (not printed)

B6: Sj peptide ligand #1 VSDRVKQMLSHWWNFRNPDTANL (peptide)
peptide: VSDRVKQMLSHWWNFRNPDTANL
Bttm (FUS1p-RFP reporter) [6]: 21.2 fluorescence/A600 (not printed) | EC50 (FUS1p-RFP reporter) [6]: -7.8 log10 M (not printed) | Fold Change (FUS1p-RFP reporter) [6]: 14.7 fold | Span (FUS1p-RFP reporter) [6]: 290 fluorescence/A600 (not printed) | Top (FUS1p-RFP reporter) [6]: 311 fluorescence/A600 (not printed)

B7: So peptide ligand #1 TYEDFLRVYKNWWSFQNPDRPDL (peptide)
peptide: TYEDFLRVYKNWWSFQNPDRPDL
Bttm (FUS1p-RFP reporter) [7]: 23.7 fluorescence/A600 (not printed) | EC50 (FUS1p-RFP reporter) [7]: -7.8 log10 M (not printed) | Fold Change (FUS1p-RFP reporter) [7]: 11.1 fold | Span (FUS1p-RFP reporter) [7]: 240 fluorescence/A600 (not printed) | Top (FUS1p-RFP reporter) [7]: 263 fluorescence/A600 (not printed)

B8: Sp peptide ligand #1 TYADFLRAYQSWNTFVNPDRPNL (peptide)
peptide: TYADFLRAYQSWNTFVNPDRPNL
Bttm (FUS1p-RFP reporter) [8]: 29.6 fluorescence/A600 (not printed) | EC50 (FUS1p-RFP reporter) [8]: -6.2 log10 M (not printed) | Fold Change (FUS1p-RFP reporter) [8]: 7.6 fold | Span (FUS1p-RFP reporter) [8]: 195 fluorescence/A600 (not printed) | Top (FUS1p-RFP reporter) [8]: 224 fluorescence/A600 (not printed)

B9: Ss peptide ligand #1 WHWTSYGVFEPG (peptide)
peptide: WHWTSYGVFEPG
Bttm (FUS1p-RFP reporter) [9]: 23 fluorescence/A600 (not printed) | EC50 (FUS1p-RFP reporter) [9]: -7.9 log10 M (not printed) | Fold Change (FUS1p-RFP reporter) [9]: 13.8 fold | Span (FUS1p-RFP reporter) [9]: 295 fluorescence/A600 (not printed) | Top (FUS1p-RFP reporter) [9]: 318 fluorescence/A600 (not printed)

B10: Vp1 peptide ligand #1 WHWLELDNGQPIY (peptide)
peptide: WHWLELDNGQPIY
Bttm (FUS1p-RFP reporter) [10]: 28.8 fluorescence/A600 (not printed) | EC50 (FUS1p-RFP reporter) [10]: -8.6 log10 M (not printed) | Fold Change (FUS1p-RFP reporter) [10]: 8.4 fold | Span (FUS1p-RFP reporter) [10]: 214 fluorescence/A600 (not printed) | Top (FUS1p-RFP reporter) [10]: 243 fluorescence/A600 (not printed)
